Article PMC3082911 (Nucleic Acids Research, 2010)
Blank lines part the entries; values can stand above or below the molecule they belong to.

What was measured:
[1] = molecular target: myc-tagged PSF (full-length) (UniProt Q8VIJ6); assay: co-IP
[2] = molecular target: T1, myc-tagged PSF (full-length) (UniProt Q8VIJ6 1-699); assay: co-IP
T1 sequence: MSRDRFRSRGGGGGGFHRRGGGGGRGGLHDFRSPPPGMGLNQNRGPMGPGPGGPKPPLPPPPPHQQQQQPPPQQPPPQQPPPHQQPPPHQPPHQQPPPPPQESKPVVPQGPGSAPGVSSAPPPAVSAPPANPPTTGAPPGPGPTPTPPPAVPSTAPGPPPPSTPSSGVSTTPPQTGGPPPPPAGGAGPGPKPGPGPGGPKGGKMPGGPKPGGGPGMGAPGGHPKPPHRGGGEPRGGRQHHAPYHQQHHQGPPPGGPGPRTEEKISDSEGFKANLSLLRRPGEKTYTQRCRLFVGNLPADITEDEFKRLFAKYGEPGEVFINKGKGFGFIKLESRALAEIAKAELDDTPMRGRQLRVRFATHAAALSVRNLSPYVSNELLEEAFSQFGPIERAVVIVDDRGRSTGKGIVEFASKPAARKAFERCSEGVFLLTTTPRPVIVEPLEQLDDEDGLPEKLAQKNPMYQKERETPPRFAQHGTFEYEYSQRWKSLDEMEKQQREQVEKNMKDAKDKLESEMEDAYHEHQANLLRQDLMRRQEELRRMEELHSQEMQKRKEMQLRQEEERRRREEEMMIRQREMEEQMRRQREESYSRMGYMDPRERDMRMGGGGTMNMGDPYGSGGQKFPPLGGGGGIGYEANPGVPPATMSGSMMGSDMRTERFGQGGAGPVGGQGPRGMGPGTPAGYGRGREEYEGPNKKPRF

Molecule: myc-tagged Fox-3-S (from UniProt Q8BIF2-5 1-327) (natural protein)
- fold more efficiently pulled down by PSF than Fox-1 [1]: 7 fold
- fold more efficiently pulled down by PSF than Fox-2 [1]: 2.7 fold

- fold more efficiently pulled down by PSF than Fox-1 [2]: 7 fold
- fold more efficiently pulled down by PSF than Fox-2 [2]: 2.7 fold
B1: myc–Fox-3-L (natural protein)
chain: MAQPYPPAQYPPPPQNGIPAEYAPPPPHPTQDYSGQTPVPPEHGMTLYTPAQTHPEQPGTEASTQPIAGTQTVPQADEAAQTDNQQLHPSDPTEKQQPKRLHVSNIPFRFRDPDLRQMFGQFGKILDVEIIFNERGSKGFGFVTFETSSDADRAREKLNGTIVEGRKIEVNNATARVMTNKKPGNPYANGWKLNPVVGTVYGPEFYAVTSFPYPTTGTAVAYRGAHLRGRGRAVYNTFRAAPPPPPIPTYGAALEQTLVKMPVPWAGLAPCPLPPQQTPEPAYPTSPAFPPLSCPFASRVVYQDGFYGAEIYGGYAAYRYAQPAAATAAAYSDSYGRVYAAADPYHHTIGPTATYSIGTMASLCRGGYSRFTPY
